B1: GST-HPV16 E7 (other)
chain: MHGDTPTLHEYMLDLQPETTDLYCYEQLNDSSEEEDEIDGPAGQAEPDRAHYNIVTFCCKCDSTLRLCVQSTHVDIRTLEDLLMGTLGIVCPICSQKP
notes: range 1-98; GST fusion from pGEX-4T-3; also called GST-16E7; full length GST-HPV 16 E7; not shown: glutathione-S-transferase (GST) moiety of vector pGEX-4T-3, at the amino-terminus
B2: GST-HPV31 E7 (other)
chain: MRGETPTLQDYVLDLQPEATDLHCYEQLPDSSDEEDVIDSPAGQAEPDTSNYNIVTFCCQCKSTLRLCVQSTQVDIRILQELLMGSFGIVCPNCSTRL
notes: GST fusion from pGEX-4T-3; also called GST-31E7; not shown: glutathione-S-transferase (GST) moiety of vector pGEX-4T-3, at the amino-terminus
B3: His-p21C (other)
chain: GLPKLYLPTGPRRGRDELGGGRRPGTSPALLQGTAEEDHVDLSLSCTLVPRSGEQAEGSPGGPGDSQGRKRRQTSMTDFYHSKRRLIFSKRKP
notes: range 72-164; also called carboxy terminal residues 72-164 of p21; not shown: poly-histidine tag from vector pET15b

Legend:
cyclin A/CDK2 complex = cyclin A/CDK2 complex (UniProt P20248 1-432; P24941 1-298); assay: cell-based or functional assay
cyclin A/CDK2 complex, sequence (P20248 whole entry, one chain of several): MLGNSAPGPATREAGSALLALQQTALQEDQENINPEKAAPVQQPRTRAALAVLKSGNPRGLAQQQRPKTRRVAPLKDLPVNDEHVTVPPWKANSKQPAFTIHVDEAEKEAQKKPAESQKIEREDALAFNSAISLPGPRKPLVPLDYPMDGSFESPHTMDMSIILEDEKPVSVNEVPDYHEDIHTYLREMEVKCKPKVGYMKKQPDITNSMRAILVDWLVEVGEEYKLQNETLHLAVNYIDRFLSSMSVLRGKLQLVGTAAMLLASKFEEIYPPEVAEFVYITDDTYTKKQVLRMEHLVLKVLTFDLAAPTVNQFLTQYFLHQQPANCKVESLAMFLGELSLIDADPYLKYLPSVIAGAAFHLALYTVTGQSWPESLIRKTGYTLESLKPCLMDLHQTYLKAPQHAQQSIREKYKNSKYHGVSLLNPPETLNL

[1] = target: CDK2 kinase complex (cyclin not given) (UniProt P24941 1-298); assay: cell-based or functional assay
His-p27N = target: T1, His-p27N (human, UniProt P46527 1-101); assay: GST pull-down on glutathione-agarose beads, SDS-PAGE, Coomassie blue and Western blot
T1 construct: range 1-101; also called amino terminal residues 1-101 from p27; not shown: poly-histidine tag from the expression vector
T1 sequence (P46527 1-101): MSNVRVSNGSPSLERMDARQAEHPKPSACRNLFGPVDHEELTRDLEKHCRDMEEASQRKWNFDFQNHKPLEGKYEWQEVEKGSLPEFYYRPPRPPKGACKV

His-p27C = target: T2, His-p27C (human, UniProt P46527 95-198); assay: as above
T2 construct: range 95-198; also called carboxy terminal residues 95-198 of p27; not shown: poly-histidine tag from the expression vector
T2 sequence (P46527 95-198): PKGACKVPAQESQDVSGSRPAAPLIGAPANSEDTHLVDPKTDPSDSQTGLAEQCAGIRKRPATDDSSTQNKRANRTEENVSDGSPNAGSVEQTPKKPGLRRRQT

GST-HPV16 E7 = target: B1; assay: as above
GST-HPV31 E7 = target: B2; assay: as above

Binder | cyclinA/CDK2 histone H1 kinase activity (PhosphorImager) (cyclin A/CDK2 complex) [fold] | CDK2 histone kinase activity, fold activation [1] [fold] | binding result (His-p27N) | binding result (His-p27C) | binding result (GST-HPV16 E7) | binding result (GST-HPV31 E7)
B1 | 26 | 18.2 | no binding | no binding |  | 
B2 |  | 12.6 | no binding | no binding |  | 
B3 |  |  |  |  | no binding | no binding

Source: patent US20010029022A1 (PHARMACIA AND UPJOHN, published 2001)
